Source: CN111110862A
Values belong to the binder of their own block, whether it stands above or below them.

Columns and labels:
[1] = biological target: 人CLDN18.2(hCLDN18.2) (human) (UniProt P56856); assay: cell ELISA on fixed hCLDN18.2+cell
[2] = biological target: 人CLDN18.2(hCLDN18.2) (human) (UniProt P56856); assay: cell ELISA on fixed hCLDN18.2+cell, plateau reading
[3] = biological target: 人CLDN18.2(hCLDN18.2) (human) (UniProt P56856); assay: cell ELISA, hybridoma supernatant on hCLDN18.2+cell

EC50 [1]: 0.115 nM
Emax higher than Ref [1]: > 36%
fold better binding (EC50) than Ref [1]: > 1 fold
Emax [2]: 1.92
B1: anti-hCLDN18.2鼠源抗体mab5b (antibody, human IgG1, kappa, V domains shown)
VH: QVQLQQSGAELIGPGTSVKVSCKASGYAFSNYLIEWVKQRPEQGLEWIGLINPGSGGTNYNEKFKGKATLTADKSSSTAYMQLSSLTSDDSAVYFCARVYYGNSFAYWGQGTLVTVSA
VL: DIVMTQSPSSLTVTAGEKVTMSCKSSQSLLNSGNQKNYLTWYQQKPGQPPKLLIYWASTRESGVPDRFTGSGSGTHFTLTISSVQAEDLAVYYCQNDYFYPFTFGSGTKLEKKR

ELISA读值 [3]: 0.889
B2: 杂交瘤单克隆细胞株C13C1F1D3G6所分泌的抗体 (antibody, V domains shown)
VH: B1 VH
VL: DIVMTQSPSSLTVTAGEKVTMSCKSSQSLLNSGNQKNYLTWYQQKPGQPPKLLIYWASTRESGVPDRFTGSGSGTHFTLTISSVQAEDLAVYYCQNDYFYPFTFGSGTKLEKK
